± gives the standard deviation of the averaged measurements.

This series concerns ATP. The series can be described thus: switch fluorescence ratio, 500 uM ATP over buffer (Cy3 cluster intensity, sum of 5 cycles each) (fold (ratio)); higher = stronger signal-on switching upon ATP binding; sequences stand for … in TCGTCGGCAGCGTCAGATGTGTATAAGAGACAGTTTTTTTTTTTTTTTTTTTTTTTTT…TC. To be noted: aptamer strand: ATP DNA aptamer (quencher-CACCTGGGGGAGTATTGCGGAGGAAGG + anchor), 100 nM annealed; ATP concentration: 500 uM. In a few lines: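 Exposure to 500 uM ATP lasted 15 min at 22 °C before imaging, and a selection-buffer image was taken beforehand, for Cy3-labelled switching-strand clusters on a modified Illumina MiSeq flow-cell annealed to 100 nM quencher-labelled ATP aptamer. Five buffer/ATP cycles were run with NaOH stripping and re-annealing between them. The fluorescence ratio per cluster is summed target-cycle over summed buffer-cycle Cy3 intensity, averaged per switch-domain sequence. Clusters outside 100-1000 RFU were excluded.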

As for GGTTGTGTTT, the switch fluorescence ratio turned out to be 0.991 ± 0.003.
Consider GGTTGTTGTT, for which the switch fluorescence ratio was 0.978 ± 0.029.
As for GGTTGTTTTT, the switch fluorescence ratio came out at 1.01 ± 0.032.
In the case of GGTTTAAGAA, the switch fluorescence ratio amounted to 1.02 ± 0.023.
GGTTTACGTC: the switch fluorescence ratio came out at 0.9998 ± 0.0082.
Consider GGTTTACTTC, for which the switch fluorescence ratio was 0.9967 ± 0.0016.
As to GGTTTAGGTT, the switch fluorescence ratio was 1.01 ± 0.029.
Next, GGTTTAGTGA: 0.998 ± 0.034; GGTTTATATT: 1.01 ± 0.05; GGTTTATGAA: 0.999 ± 0.018.
GGTTTATTAA: the switch fluorescence ratio is 0.983 ± 0.011.
As for GGTTTCAGAT, the switch fluorescence ratio turned out to be 0.975 ± 0.016.
GGTTTCATAG: the switch fluorescence ratio came out at 0.976 ± 0.013.
Consider GGTTTCGCGC, for which the switch fluorescence ratio came out at 1.01 ± 0.013.
Take GGTTTCGGAA: the switch fluorescence ratio came to 1 ± 0.034.
On to GGTTTCGGGC, for which the switch fluorescence ratio was determined as 1.03 ± 0.044.
Regarding GGTTTCGGGT, the switch fluorescence ratio is 0.984 ± 0.0011.
For GGTTTCTCGT, the switch fluorescence ratio was 0.967 ± 0.04.
As to GGTTTCTGCT, the switch fluorescence ratio worked out at 1.02 ± 0.03.
Consider GGTTTGACTA, for which the switch fluorescence ratio is 0.9857 ± 0.0066.
In the case of GGTTTGGTAG, the switch fluorescence ratio was found to be 0.9873 ± 0.0029.
For GGTTTGTAAC, the switch fluorescence ratio was 0.978 ± 0.029.
The figure for GGTTTGTTAT is 1 ± 0.014.
GGTTTTCCGG: the switch fluorescence ratio amounted to 1.01 ± 0.046.
Turning to GGTTTTCGGC, the switch fluorescence ratio amounted to 0.9771 ± 0.0087.
The figure for GGTTTTCTCA is 1.002 ± 0.008; for GGTTTTGCTT it is 0.96 ± 0.034.
As to GGTTTTGTAT, the switch fluorescence ratio stood at 0.993 ± 0.024.
Turning to GGTTTTTAAT, the switch fluorescence ratio amounted to 0.985 ± 0.031.
Consider GGTTTTTACG, for which the switch fluorescence ratio is 0.985 ± 0.061.
On to GGTTTTTGCG, for which the switch fluorescence ratio came to 1.0217 ± 0.0008.
With GGTTTTTTAG, the switch fluorescence ratio turned out to be 0.996 ± 0.021.
GGTTTTTTGC: the switch fluorescence ratio worked out at 1.01 ± 0.04.
GTAAAAACTC: the switch fluorescence ratio amounted to 1.03 ± 0.024.
With GTAAACGGTA, the switch fluorescence ratio was 1.08 ± 0.064.
Turning to GTAAACGGTG, the switch fluorescence ratio worked out at 0.979 ± 0.032.
As to GTAAATAGCT, the switch fluorescence ratio amounted to 1.02 ± 0.073.
Consider GTAAATAGGC, for which the switch fluorescence ratio amounted to 0.993 ± 0.023.
Next, GTAAATAGTC: 1.03 ± 0.065; GTAAATGGGG: 0.975 ± 0.011.
Take GTAACAGGGT: the switch fluorescence ratio was 0.999 ± 0.023.
As for GTAACCCCGG, the switch fluorescence ratio stood at 1.07 ± 0.025.
With GTAACGGCCG, the switch fluorescence ratio amounted to 1.16 ± 0.18.
Consider GTAACGGGGA, for which the switch fluorescence ratio is 0.995 ± 0.072.
Next, GTAACGGGGC: 0.982 ± 0.049; GTAACTAGAG: 0.997 ± 0.033; GTAAGATTAT: 0.985 ± 0.067.
On to GTAAGGAGGT, for which the switch fluorescence ratio was found to be 0.976 ± 0.023.
The figure for GTAAGTAAAA is 1.03 ± 0.089; for GTAAGTATGT it is 1.01 ± 0.011; for GTAAGTGAAG it is 1.05 ± 0.014.
With GTAATAAGAG, the switch fluorescence ratio is 1.004 ± 0.0063.
For the sequence GTAATAAGGT, the switch fluorescence ratio came to 1.02 ± 0.023.
In the case of GTAATACCAA, the switch fluorescence ratio is 1.03 ± 0.058.
GTAATATTAA: the switch fluorescence ratio worked out at 1.0073 ± 0.00065.
As to GTAATGAGCG, the switch fluorescence ratio was determined as 0.998 ± 0.044.
GTAATGCTTA: the switch fluorescence ratio was found to be 1.011 ± 0.005.
The figure for GTAATGGGGG is 1.09 ± 0.071.
In the case of GTAATTCGGG, the switch fluorescence ratio came to 0.9809 ± 0.0073.
Next, GTAATTGCGG: 0.9765 ± 0.0056; GTAATTTGGG: 0.982 ± 0.019; GTAATTTTTC: 1.01 ± 0.053.
Regarding GTACGGGAAG, the switch fluorescence ratio turned out to be 1.19 ± 0.1.
On to GTACTCGGGG, for which the switch fluorescence ratio is 0.9991 ± 0.0074.
Consider GTAGAAAGTT, for which the switch fluorescence ratio is 0.984 ± 0.0028.
Take GTAGAGAACT: the switch fluorescence ratio worked out at 1 ± 0.021.
Consider GTAGCTCCTG, for which the switch fluorescence ratio worked out at 0.995 ± 0.056.
For the sequence GTAGGAATGT, the switch fluorescence ratio was 1.03 ± 0.036.
As to GTAGGACCTA, the switch fluorescence ratio came out at 1.01 ± 0.018.
In the case of GTAGGCAAAT, the switch fluorescence ratio came out at 1.029 ± 0.003.
GTAGGCAAGA: the switch fluorescence ratio is 1.03 ± 0.071.
With GTAGGGAGGG, the switch fluorescence ratio amounted to 0.987 ± 0.013.
As to GTAGGGCATG, the switch fluorescence ratio is 0.96 ± 0.026.
The figure for GTAGGGGCCC is 1.02 ± 0.032; for GTAGGGGGCG it is 1.01 ± 0.017.
GTAGGGGGGA: the switch fluorescence ratio was determined as 0.987 ± 0.04.
For GTAGGGTGCT, the switch fluorescence ratio is 1.042 ± 0.0064.
In the case of GTAGTACAAG, the switch fluorescence ratio was 0.986 ± 0.026.
Take GTAGTAGGGA: the switch fluorescence ratio was 1.01 ± 0.025.
Turning to GTAGTAGGGT, the switch fluorescence ratio amounted to 1.01 ± 0.035.
In the case of GTAGTCACGA, the switch fluorescence ratio worked out at 1.01 ± 0.048.
The figure for GTAGTGAGGA is 1.02 ± 0.029.
With GTAGTGAGGG, the switch fluorescence ratio amounted to 0.982 ± 0.037.
On to GTAGTGCCAG, for which the switch fluorescence ratio was determined as 1.02 ± 0.042.
Next, GTAGTTTTGA: 0.981 ± 0.018; GTATAAGAGG: 0.991 ± 0.019; GTATAAGGAT: 1.03 ± 0.019.
Regarding GTATACGCAG, the switch fluorescence ratio is 1.02 ± 0.026.
Regarding GTATACGGCA, the switch fluorescence ratio is 1.01 ± 0.022.
GTATAGGGAA: the switch fluorescence ratio amounted to 1.004 ± 0.0071.
As for GTATCCCCCG, the switch fluorescence ratio was 1.03 ± 0.041.
For the sequence GTATCCCGTG, the switch fluorescence ratio is 0.977 ± 0.018.
As for GTATCGAGGA, the switch fluorescence ratio is 0.963 ± 0.047.
For GTATCTGATG, the switch fluorescence ratio turned out to be 1.004 ± 0.0027.
As for GTATGACGTA, the switch fluorescence ratio was determined as 0.968 ± 0.037.
On to GTATGAGTTG, for which the switch fluorescence ratio is 1.02 ± 0.027.
As to GTATGCGGAG, the switch fluorescence ratio came out at 0.996 ± 0.02.
On to GTATGCGGGG, for which the switch fluorescence ratio came to 0.996 ± 0.02.
As to GTATGCTAGC, the switch fluorescence ratio amounted to 1.004 ± 0.0086.
Consider GTATGGATGT, for which the switch fluorescence ratio was found to be 1.007 ± 0.0043.
In the case of GTATGGCAGG, the switch fluorescence ratio amounted to 1.01 ± 0.018.
In the case of GTATGGGCGT, the switch fluorescence ratio was 1.03 ± 0.018.
For the sequence GTATGTAGTA, the switch fluorescence ratio came to 0.985 ± 0.0098.
As for GTATGTCGAG, the switch fluorescence ratio came to 0.988 ± 0.014.
On to GTATGTCGTT, for which the switch fluorescence ratio is 0.968 ± 0.034.
Regarding GTATGTGTGC, the switch fluorescence ratio stood at 0.96 ± 0.03.
In the case of GTATTAAGGG, the switch fluorescence ratio is 1.02 ± 0.035.
Turning to GTATTAGCAG, the switch fluorescence ratio came to 1.03 ± 0.026.
GTATTCAAGA: the switch fluorescence ratio was found to be 1 ± 0.043.
On to GTATTCGCAA, for which the switch fluorescence ratio worked out at 4.73 ± 0.9.
Next, GTATTCGGGA: 0.963 ± 0.029.
With GTATTGAGAT, the switch fluorescence ratio is 0.973 ± 0.063.
For the sequence GTATTGATTT, the switch fluorescence ratio is 0.9769 ± 0.0055.
As to GTATTGGGCT, the switch fluorescence ratio turned out to be 0.98036 ± 0.00097.
With GTATTTAAAT, the switch fluorescence ratio is 0.9855 ± 0.0018.
Take GTATTTACTC: the switch fluorescence ratio is 1.04 ± 0.034.
For the sequence GTATTTCGGT, the switch fluorescence ratio came out at 0.972 ± 0.031.
For the sequence GTATTTTCGC, the switch fluorescence ratio was found to be 1.02 ± 0.017.
As to GTATTTTGCT, the switch fluorescence ratio was 0.979 ± 0.031.
For GTCAAAAAGT, the switch fluorescence ratio is 0.985 ± 0.028.

Source of the values: the supplement of paper PMC10126150.
